Experimental data reported in US20230399408A1 (AB THERAPEUTICS, published 2023).
Values belong to the molecule of their own block, whether it stands above or below them.

Experiments:
[1] = target: cMET (UniProt P08581); test: BLI (Probelife)
[2] = target: EGFR mutant C797S on BaF3 cells (UniProt P00533); test: flow cytometry on EGFR mutant C797S-BaF3 cells, goat anti-human Fc-FITC
[3] = target: EGFR on NCI-H1975 cells (human) (UniProt P00533); test: flow cytometry on H1975 cells, dilutions 2.04e-4 to 400 nM, goat anti-human Fc-FITC; whole-cell binding, the cells also carry cMET
[4] = target: c-MET-His tag protein (human) (UniProt P08581); test: titration ELISA, c-MET-His coated
Chain of c-MET-His tag protein (human) (P08581 25-932 limits assumed): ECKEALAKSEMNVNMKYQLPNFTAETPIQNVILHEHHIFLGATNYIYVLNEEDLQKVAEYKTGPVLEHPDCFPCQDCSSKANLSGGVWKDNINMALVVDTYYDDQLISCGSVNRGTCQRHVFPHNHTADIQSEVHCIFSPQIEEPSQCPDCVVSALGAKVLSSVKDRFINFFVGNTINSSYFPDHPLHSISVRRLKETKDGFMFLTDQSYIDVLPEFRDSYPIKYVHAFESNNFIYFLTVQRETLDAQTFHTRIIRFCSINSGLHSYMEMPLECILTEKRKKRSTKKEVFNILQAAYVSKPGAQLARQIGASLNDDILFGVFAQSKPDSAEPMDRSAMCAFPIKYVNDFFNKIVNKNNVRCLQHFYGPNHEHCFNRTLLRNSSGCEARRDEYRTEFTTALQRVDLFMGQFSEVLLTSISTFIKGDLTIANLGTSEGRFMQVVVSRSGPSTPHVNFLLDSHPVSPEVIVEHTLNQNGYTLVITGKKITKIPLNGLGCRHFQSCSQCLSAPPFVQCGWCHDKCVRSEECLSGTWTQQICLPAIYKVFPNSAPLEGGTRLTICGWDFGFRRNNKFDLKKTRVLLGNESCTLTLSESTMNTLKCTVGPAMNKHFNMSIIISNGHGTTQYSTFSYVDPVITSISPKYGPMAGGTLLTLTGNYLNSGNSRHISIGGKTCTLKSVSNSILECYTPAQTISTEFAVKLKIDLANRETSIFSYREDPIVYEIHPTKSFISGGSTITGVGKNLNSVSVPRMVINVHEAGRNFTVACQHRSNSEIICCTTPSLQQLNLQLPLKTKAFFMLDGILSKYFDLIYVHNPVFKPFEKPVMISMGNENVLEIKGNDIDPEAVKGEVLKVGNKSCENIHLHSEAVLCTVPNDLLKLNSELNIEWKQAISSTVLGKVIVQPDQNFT

[5] = target: EGFR (UniProt P00533); test: separate experiment, method not restated (BLI in this example), EGFR binding
[6] = target: cMET (UniProt P08581); test: separate experiment, method not restated (BLI in this example), cMET binding
[7] = target: EGFR on NCI-H1975 cells (human) (UniProt P00533); test: flow cytometry competition on H1975.HGF cells, streptavidin-PE; blocked ligand biotinylated EGF; fit value of a control curve that rises instead of falling
[8] = target: EGFR mutant C797S on BaF3 cells (UniProt P00533); test: flow cytometry competition on EGFR mutant C797S-BaF3 cells, streptavidin-PE; blocked ligand biotinylated EGF; fit value of a flat control curve
[9] = target: EGFR mutant C797S on BaF3 cells (UniProt P00533); test: flow cytometry on EGFR mutant C797S-BaF3 cells, goat anti-human Fc-FITC; fit value of a flat control curve; the drawn table is identical to that of FIG. 23C
[10] = target: EGFR on NCI-H1975 cells (human) (UniProt P00533); test: flow cytometry on H1975 cells, dilutions 2.04e-4 to 400 nM, goat anti-human Fc-FITC; fit value of a flat control curve, beyond the tested range
[11] = target: cMET on NCI-H1975 cells (human) (UniProt P08581); test: flow cytometry competition on H1975.HGF cells, streptavidin-PE; ligand biotinylated HGF; fit value of a nearly flat control curve
Chain of cMET on NCI-H1975 cells (human) (P08581 25-1390): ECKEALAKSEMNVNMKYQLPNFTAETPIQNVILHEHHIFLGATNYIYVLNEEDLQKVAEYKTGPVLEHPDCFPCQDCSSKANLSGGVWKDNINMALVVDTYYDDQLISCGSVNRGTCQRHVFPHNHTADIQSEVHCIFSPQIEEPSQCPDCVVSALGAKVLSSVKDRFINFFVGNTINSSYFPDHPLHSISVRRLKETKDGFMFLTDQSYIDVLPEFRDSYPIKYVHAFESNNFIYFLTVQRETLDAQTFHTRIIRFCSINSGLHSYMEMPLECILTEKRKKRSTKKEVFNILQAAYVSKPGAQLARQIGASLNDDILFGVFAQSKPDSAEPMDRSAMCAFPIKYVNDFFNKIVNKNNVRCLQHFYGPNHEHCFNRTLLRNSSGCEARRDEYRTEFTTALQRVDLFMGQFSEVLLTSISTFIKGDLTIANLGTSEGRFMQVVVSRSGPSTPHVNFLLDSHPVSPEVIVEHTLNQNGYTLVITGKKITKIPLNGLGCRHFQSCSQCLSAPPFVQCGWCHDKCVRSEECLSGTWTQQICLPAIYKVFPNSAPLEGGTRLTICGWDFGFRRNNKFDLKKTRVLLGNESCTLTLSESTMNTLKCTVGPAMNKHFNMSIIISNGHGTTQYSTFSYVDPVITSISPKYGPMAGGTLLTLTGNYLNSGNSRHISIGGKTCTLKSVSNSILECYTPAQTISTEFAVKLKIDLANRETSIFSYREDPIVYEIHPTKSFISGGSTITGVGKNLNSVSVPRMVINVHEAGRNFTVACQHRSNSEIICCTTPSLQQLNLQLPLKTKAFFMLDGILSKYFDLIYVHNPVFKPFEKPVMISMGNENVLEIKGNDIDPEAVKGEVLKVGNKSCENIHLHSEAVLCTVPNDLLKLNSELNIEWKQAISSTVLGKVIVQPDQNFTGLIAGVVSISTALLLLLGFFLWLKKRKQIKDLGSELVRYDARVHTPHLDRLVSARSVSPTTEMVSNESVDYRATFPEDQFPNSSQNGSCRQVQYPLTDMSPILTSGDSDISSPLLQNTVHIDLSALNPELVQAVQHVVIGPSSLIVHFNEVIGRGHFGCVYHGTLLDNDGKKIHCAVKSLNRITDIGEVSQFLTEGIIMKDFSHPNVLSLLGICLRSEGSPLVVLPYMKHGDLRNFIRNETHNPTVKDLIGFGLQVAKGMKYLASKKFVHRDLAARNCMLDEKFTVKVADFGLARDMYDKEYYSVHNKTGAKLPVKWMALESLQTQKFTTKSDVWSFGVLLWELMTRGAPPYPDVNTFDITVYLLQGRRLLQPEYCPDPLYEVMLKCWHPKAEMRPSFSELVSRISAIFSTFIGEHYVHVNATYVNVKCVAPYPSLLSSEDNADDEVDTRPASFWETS

[12] = target: EGFR on NCI-H1975 cells (human) (UniProt P00533); test: flow cytometry on H1975.HGF cells, goat anti-human Fc-FITC; fit value of a flat control curve; the drawn table is identical to that of FIG. 23B
[13] = target: cMET on NCI-H1975 cells (human) (UniProt P08581); test: flow cytometry competition on H1975 cells, streptavidin-PE; blocked ligand biotinylated HGF; fit value of a nearly flat control curve (about 6500 to 6200)
[14] = target: T1, human cMET (human, UniProt P08581 25-932); test: binding ELISA, plate coated with human cMET at 1 ug/mL, clone at 10 ug/mL, biotinylated anti-c-Myc 9E-10 and streptavidin detection
T1 construct: Coated antigen of the cross-reactivity ELISA; also called human antigen; anti-Hu
T1 sequence (P08581 25-932): as the sequence (P08581 25-932 limits assumed) above
Method: A high binding ELISA plate was coated with 1 μg/mL (diluted in 1×PBS) human or monkey antigens and kept at 4° C. overnight. On the next day, the plate was blocked with a blocking buffer (4% non-fat milk in 1×PBS) for 1 hour at 37° C. After blocking, the plate was washed three times with PBST. The antibody samples to be tested were diluted in PBS and then added to the corresponding wells (10 μg/mL). The plate was incubated at 37° C. at RT for 1 hour. After the incubation, the plate was washed three times with the PBST. Next, a secondary antibody (biotinylated anti-c-Myc antibody 9E-10, diluted at 1:500) was added to the wells and the plate was incubated at 37° C. at RT for 1 hour. The plate was then washed three times with PBST. Afterwards, streptavidin-RP, diluted at 1:1000, was added to each well and then the plate was incubated at 37° C. at RT for 1 hour. After the incubation, the plate was washed four times with PBST. After washing, the plate was developed by adding the Amplex reagent substrate and then the luminescent signal was measured at 530 nm and 590 nm in a SpectraMax plate reader.

[15] = target: T2, c-MET-His tag protein (human, UniProt P08581 25-932); test: BLI (Probelife Gator), cMET-His on HIS probe saturated with 1H1-cMET-VHH-Fc, second antibody at 5 ug/ml
T2 construct: also called cMET-HIS tagged; not shown: His tag
T2 sequence (P08581 25-932 limits assumed): as above
Method: Briefly, a baseline was established using HIS probes in Quantitation (Q) buffer (a phosphate buffered saline solution with bovine serum albumin to decrease non-specific and background signal). The antigen (cMET-HIS tagged) to the HIS probe was added in 5 μg/ml cMET solution in Q buffer. HIS probes in Q buffer were used to return to the baseline. […] Finally, the secondary antibody was associated through HIS Probes in 5 μg/ml of antibody diluted in Q buffer.

Chain of cMET (P08581 25-932): as the sequence (P08581 25-932 limits assumed) above

Molecule: JNJ372 analog (bispecific antibody)
Kd [1]: 0.405 nM | EC50 (read off the curve) [2]: 3 nM | EC50 [3]: 0.46 nM | EC50 [4]: 4.89 ng/mL | Kd [5]: 0.689 nM | Kd [6]: 0.432 nM

Molecule: Neg.control (antibody)
EC50 [7]: 26.4 nM | EC50 [8]: 0.0262 nM | EC50 [9]: 0.0262 nM | EC50 [10]: 11100 nM | EC50 [11]: 1.08 nM | EC50 [12]: 26.4 nM | EC50 [13]: 0.112 nM

Other lines, results leading:

binding result [14]: binds
B1: 1A12 (VHH)
VHH: QVQLVESGGGLVQPGGSLRLSCAASGFTFNSYWMYWVRLAPGKGIEWVSATDTRGQNTYYTDSVKGRFTISRDNAKNMVSLQMNNLKSEDTAVYYCALGNRWGTFPNRGPGTLVTVSS
notes: it is not the VHH-Fc fusion m11; also called cMET-1A12; clone 1A12

binding result [15]: binds
B2: cMET-1A12 VHH-Fc (Fc fusion)
chain: QVQLVESGGGLVQPGGSLRLSCAASGFTFNSYWMYWVRLAPGKGIEWVSATDTRGQNTYYTDSVKGRFTISRDNAKNMVSLQMNNLKSEDTAVYYCALGNRWGTFPNRGPGTLVTVSS
notes: not shown: hinge and Fc of the VHH-Fc
